Measurements published in the RNAGym collection of RNA variant scans (doi:10.1073/pnas.2313332121).
Variants at the floor of the assay were thinned out.

B1: TPR 5TU (parent)
chain: GGAUCUUCUCGAUCUAACAAAAAAGACAAAUCUGCCACAAAGCUUGAGAGCAUCUUCGGAUGCAGAGGCGGCAGCCUUCGGUGGCGCGAUAGCGCCAACGUUCUCAACUAUGACACGCAAAACGCGUGCUCCGUUGAAUGGAGUUUAUCAUG

Variants of: B1
Assay: polymerase ribozyme fitness, log enrichment relative to wild type (log ratio); higher = more active; in vitro selection for triplet polymerase activity
Method in brief: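 Genotype fitness is the logarithm of its enrichment divided by wild-type enrichment, using inverse-variance-weighted averages of replicates. That logarithm is base 2. Enrichment was measured by Illumina sequencing of input and output libraries from one triplicate in vitro selection round, with frozen incubation at −7 °C, on PCR-built, transcribed mutant libraries of each subunit of a heterodimeric triplet polymerase ribozyme, retaining genotypes with ≥10 input reads and ≥1 read per output.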

Variant	polymerase ribozyme fitness (log ratio)
C38U	0.0316
C38G	-0.296
C38A	-0.151
A39C C87U G94U U101C A147U	≤ -4.2
C38G G50C G65U G84A C96U C99U U111G G143A	≤ -4.2
C36G U130C	-3.89
A37C A41U C93U C118A	-2.93
A39C C105U G124A	-2.08
A39C A142U	-3.34
C38U A73U C93U A107U G117U	≤ -4.2
C36U A64G G94A A110G	-4.2
A37C G58A C87A U101G G124C A150U	≤ -4.2
C38U A47C C93A C125U	-3.16
C38G C75G G84C C103A	≤ -4.2
C36G C95A	-3.65
C38A G83A	-0.746
C36A C96A	≤ -4.2
C38U A73G C103A	-3.99
C36A C93G C125A	≤ -4.2
C36U C93U C96G C114G C116A A138C U139G U148C G152A	-4.1
C36U C87U G143C	-3.81
A39C C93U	-3.4
A37C A39C C95U G133U	≤ -4.2
C36G G80U C85U C87A U109G U139C A142G	≤ -4.2

Variant	polymerase ribozyme fitness (log ratio)
C38U G50A	-2.15
A39C G86U	-4.18
A37U G70C C85U G92A	≤ -4.2
C36U C87U	-1.6
C38G A41U C79U G92C C123A	≤ -4.2
C38U G59A A60C	-1.48
C38U A52C A120U	-1.22
C38U C105U C118G U139G	-1.24
A37C A52C U53A G92A	≤ -4.2
A37C A97G	0.477
A37G U61G C93U A115C	-4.18
C36A G48A C93U A113U C118G U144G A150U	≤ -4.2
A37G A47G U101C	-2.53
A39C G50C G59C A97U C129A C149U	≤ -4.2
C36U A49U U82A A107C G133C	≤ -4.2
C38A C93A G136A	-1.47
C36A A150U	-4.01
C38U U53A U61A	-1.44
C38U C85G	-3.44
C38U A73U C87U C96A A122G U145A	-2.54
A37C G70U C96G	≤ -4.2
A37U C54A C96G	-3.53
C35U U82C	0.243
C36U A47G G68C G133C	≤ -4.2

Variant	polymerase ribozyme fitness (log ratio)
A37G C93G A97C C116A	≤ -4.2
C38U C76U C85G C96A C103A C114U C132U	-4.19
A37U U55A A91G A98U U148A	≤ -4.2
C36U C103G	-3.78
C35U U146C	0.279
A39C G81A G94U A106G A110C G140U	-4.04
C38G C96A C114U	-2.91
C36U C96U A142C	-2.88
A37C C72G C79A	≤ -4.2
A37U A52C C116G	-2.94
A37U C114U A115G A120U	-3.83
A37G U56A A97G	-2.85
C38A A60U G84A U134C	-1.6
C38A C51U C95A C131A	-3.34
A37C C108G	≤ -4.2
A37U A60U C75U C96A U111A	≤ -4.2
C38U U134G	-2.53
C38G C85A G94U C103G	-2.31
C38G A66G U77G G83U A107U G128C A137U	≤ -4.2
C36U A66C C69A U78G	≤ -4.2
C36A U44A G62C C93U U135G U139C U144A	≤ -4.2
C36A G117U U148C	≤ -4.2
C38U C105G G141U	-1.54
C36U A40G C108G G140A	≤ -4.2

Variant	polymerase ribozyme fitness (log ratio)
A37U A64C U135C	≤ -4.2
C38U U101G U135A	-0.00114
C36U A52U	-1.56
C38U G84A U139A	≤ -4.2
C38U G59C G81C C95G C116G	-1.71
A39C C76G A137C	≤ -4.2
C35U U56A G143C	-2.48
C38U G46U G84A U127G G143C	≤ -4.2
A37C U55A C72U G88C A98G C103G U127C U134A	≤ -4.2
A37G C38G G83U C118A C123U	-4.05
A37G A41C U53C C85U U104C G128C C149G	≤ -4.2
A37U G50C U78C A98U U134C	≤ -4.2
C36U U53A A119G	-1.17
C36U C114U	-3.21
C38A U56A A137G	-2.08
C35U U135G	-3.62
C35U U135A	-0.972
A37G A41G C79A G92U C95U C123U	≤ -4.2
A39C A64G C75G C85U G124A	≤ -4.2
C38U A52G A110C	≤ -4.2
C36A U77G G81C G92U A115U G136C	≤ -4.2
A37U A40C G68C G86U C95U G136A A137C	≤ -4.2
A37U C51U A97C	-2.02
C38A C69A G133C A150C	≤ -4.2

Variant	polymerase ribozyme fitness (log ratio)
C36A C85U A98G C125A	≤ -4.2
C36A G42C U55A A66C C69U C105G A122U G126A A142C	≤ -4.2
C35U U56G U134A	-2.9
A37C C96U	-1.09
C38U G94A	-0.383
C36U G143A	-2.3
A39C C87U	-2.12
C38U A52G G70U C85U G117U	-3.27
C38G C57A A115C U144G	-1.02
C36G C51U C54U C93G	≤ -4.2
A39C G94A	-2.88
C38U G48A A60C C72G C96A C99U C114G U139G U148G	≤ -4.2
C36U C93A G117U	-3.25
C36U G42C U53A G59A U78A C87U	≤ -4.2
C38U G42A C75G A91G C95U C105U A113U C118G	≤ -4.2
C38G G92C C95U	-1.62
A39C G58C A97U A98C C125U	-3.95
A37C U56A C85A C99G A107G G124A	≤ -4.2
A39C U44C C93U C108G A121C U139G	≤ -4.2
A39C G84A C85G U90G A91G U111A	≤ -4.2
C38U U82A U144A C149G	≤ -4.2
A37C G86U A120U U146G	-3.9
A37C C87U	-0.492
C36A C87U	-3.89

Variant	polymerase ribozyme fitness (log ratio)
A37C U56A	-0.806
C36A C76U	≤ -4.2
C36A G92A	-3.98
C36U A37U U56A A91C C116G	≤ -4.2
A37C C51U G58C C95G C118A	-3.66
C38A U61A C96G	-2.38
A37U G42C	-3.9
A37C G80A G86A	-2.42
C38U A66G G92U C108A G136U	≤ -4.2
C36A A97U U101C U139A	≤ -4.2
C38A G58A C96G C129G G143A	-2.67
C38G U55A C96A A150G	-2.63
A37G A40U A115G A142U	≤ -4.2
A37C C54U C96U	-0.249
C36A C63U	-4.08
C38U U53A	-1.72
C38U U45A U55C U101G	≤ -4.2
A37U A52U C57U G74A C76U C93U C95U U109G	≤ -4.2
A37C C38U G71A U109G C123G	≤ -4.2
A37C G70C C87A C125U	≤ -4.2
C38U C95G	-1.3
A37U C72A C95U	≤ -4.2
A37G C93U C116G	-2.65
C38U G81A C87G C95U C96A A97G A138C G141U	≤ -4.2

Variant	polymerase ribozyme fitness (log ratio)
A37C A41C C72A C93U C125U	≤ -4.2
A37U A113U C116U G136C	≤ -4.2
A37C C43U G68U A73C C79G C95U U148G	≤ -4.2
C38U C63U A73G C118U A150G	-2.88
C38U C63G A97U G143C	-3.67
C38A G58A A60G C93U C95A C125G	-3.67
C38A G50C C96A	-4.12
A37G A60G C87U	-1.88
C38U G58A G86A C93U C96A C131A	-2.97
A39C C54G G58C G117U G124U U134C	≤ -4.2
C38G U44A G65C	≤ -4.2
C38U G83C C132A	≤ -4.2
C36U G46A A64G G80C	≤ -4.2
C38A U82A G84U A120C	-1.37
C35U U78A G128A	≤ -4.2
C38A U44A A47U G86U C87G G100A A107G C118U	≤ -4.2
A37G C85U G88C C95U	≤ -4.2
C38A A89G C95G G124A	-2.76
C38A G94A	-0.134
A37C C76A	-3.34
A37U A39G A49U G81C A91C G94A U146A	≤ -4.2
A39C A40G G50C C75A C85G	≤ -4.2
C38A C76G G92C	≤ -4.2
